According to patent US20210388081A1 (Memorial Sloan Kettering, published 2021):

Assays:
[1] = target: T1, FcRL6, overexpressed on 3T3 cells (UniProt Q6DN72 20-434, limits assumed); test: phage clone on 3T3-FcRL6 cells
T1 construct: whole, on cells
T1 sequence (looked up): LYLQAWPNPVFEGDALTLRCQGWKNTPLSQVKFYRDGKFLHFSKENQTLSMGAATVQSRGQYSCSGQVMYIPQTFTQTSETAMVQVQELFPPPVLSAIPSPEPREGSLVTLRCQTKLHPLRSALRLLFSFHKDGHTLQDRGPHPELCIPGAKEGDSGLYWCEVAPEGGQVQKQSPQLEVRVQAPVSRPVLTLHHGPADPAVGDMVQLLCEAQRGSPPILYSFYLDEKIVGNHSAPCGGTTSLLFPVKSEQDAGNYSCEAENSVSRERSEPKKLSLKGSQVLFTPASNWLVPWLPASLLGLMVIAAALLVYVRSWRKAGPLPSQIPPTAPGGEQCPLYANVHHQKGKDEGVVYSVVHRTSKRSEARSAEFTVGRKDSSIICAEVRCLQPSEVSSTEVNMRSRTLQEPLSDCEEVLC

[2] = target: SLAMF9 protein (UniProt Q96A28 19-236, limits assumed); test: phage clone on SLAMF9 protein
[3] = target: T2, Fc Receptor-like 5 (FcRL5), full length, overexpressed on 3T3 or Raji cells (human, UniProt Q96RD9 16-977); test: phage clone screening on cells
T2 construct: also called 3T3-FcRL5
T2 sequence: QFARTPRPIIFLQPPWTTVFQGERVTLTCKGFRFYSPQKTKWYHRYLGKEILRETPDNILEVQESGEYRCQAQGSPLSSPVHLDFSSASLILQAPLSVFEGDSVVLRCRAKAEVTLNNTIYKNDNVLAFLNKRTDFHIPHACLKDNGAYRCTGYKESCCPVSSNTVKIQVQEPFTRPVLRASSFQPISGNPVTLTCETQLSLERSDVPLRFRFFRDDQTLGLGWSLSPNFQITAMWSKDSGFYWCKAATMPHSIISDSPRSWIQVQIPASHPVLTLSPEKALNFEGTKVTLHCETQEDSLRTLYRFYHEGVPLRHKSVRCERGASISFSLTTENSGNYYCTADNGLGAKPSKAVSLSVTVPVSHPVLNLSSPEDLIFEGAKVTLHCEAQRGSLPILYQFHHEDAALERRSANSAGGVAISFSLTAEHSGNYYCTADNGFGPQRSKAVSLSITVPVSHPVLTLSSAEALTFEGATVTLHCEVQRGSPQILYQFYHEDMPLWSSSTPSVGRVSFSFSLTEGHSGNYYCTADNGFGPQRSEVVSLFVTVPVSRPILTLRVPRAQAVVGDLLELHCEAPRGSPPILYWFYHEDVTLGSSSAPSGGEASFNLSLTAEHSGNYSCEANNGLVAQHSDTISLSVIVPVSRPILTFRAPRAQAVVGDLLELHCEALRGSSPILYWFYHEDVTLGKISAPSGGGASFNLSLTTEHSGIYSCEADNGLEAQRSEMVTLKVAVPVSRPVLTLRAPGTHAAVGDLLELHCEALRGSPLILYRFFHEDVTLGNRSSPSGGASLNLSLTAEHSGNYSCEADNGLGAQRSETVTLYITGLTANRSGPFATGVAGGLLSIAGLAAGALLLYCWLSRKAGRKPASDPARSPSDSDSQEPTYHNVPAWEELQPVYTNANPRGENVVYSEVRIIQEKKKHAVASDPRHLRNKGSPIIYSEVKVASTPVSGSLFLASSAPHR
How it was run: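 Cell-surface binding was read by flow cytometry using anti-M13 coat protein mAb and PE-labelled anti-mouse Ig. Selected scFv phage were screened on FcRL5-overexpressing 3T3 cells, with 3T3 lines bearing FcRL1, 2, 3, 4 or 6 as negative controls.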

[4] = target: T3, FcRL2, overexpressed on 3T3 cells (UniProt Q96LA5 20-508, limits assumed); test: phage clone on 3T3-FcRL2 cells
T3 construct: whole, on cells
T3 sequence (looked up): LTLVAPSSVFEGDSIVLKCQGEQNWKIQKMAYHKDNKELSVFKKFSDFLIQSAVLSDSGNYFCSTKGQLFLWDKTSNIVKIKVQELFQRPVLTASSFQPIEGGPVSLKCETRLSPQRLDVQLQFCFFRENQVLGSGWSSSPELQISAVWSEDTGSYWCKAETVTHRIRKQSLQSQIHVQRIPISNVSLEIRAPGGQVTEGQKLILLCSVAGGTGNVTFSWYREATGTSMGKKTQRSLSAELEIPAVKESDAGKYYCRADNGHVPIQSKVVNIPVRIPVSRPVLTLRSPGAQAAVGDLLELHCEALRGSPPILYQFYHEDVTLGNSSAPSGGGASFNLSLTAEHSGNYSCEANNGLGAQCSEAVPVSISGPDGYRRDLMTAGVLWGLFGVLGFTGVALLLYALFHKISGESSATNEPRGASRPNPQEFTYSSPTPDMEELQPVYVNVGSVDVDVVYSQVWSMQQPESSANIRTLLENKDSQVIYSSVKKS

[5] = target: T4, FcRL1, overexpressed on 3T3 cells (UniProt Q96LA6 17-429, limits assumed); test: phage clone on 3T3-FcRL1 cells
T4 construct: whole, on cells
T4 sequence (looked up): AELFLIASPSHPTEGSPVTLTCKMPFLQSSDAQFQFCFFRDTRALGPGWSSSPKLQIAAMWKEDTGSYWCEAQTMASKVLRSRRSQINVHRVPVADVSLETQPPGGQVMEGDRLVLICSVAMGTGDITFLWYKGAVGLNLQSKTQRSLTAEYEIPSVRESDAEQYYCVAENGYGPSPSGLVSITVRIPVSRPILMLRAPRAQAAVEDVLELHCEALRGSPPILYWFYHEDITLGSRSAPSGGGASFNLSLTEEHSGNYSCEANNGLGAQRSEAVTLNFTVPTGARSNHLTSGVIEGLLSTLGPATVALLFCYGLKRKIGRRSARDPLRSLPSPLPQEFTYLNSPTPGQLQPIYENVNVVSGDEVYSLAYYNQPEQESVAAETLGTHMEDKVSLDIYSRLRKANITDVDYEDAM

SLAMF9 protein, sequence (Q96A28 19-236 limits assumed): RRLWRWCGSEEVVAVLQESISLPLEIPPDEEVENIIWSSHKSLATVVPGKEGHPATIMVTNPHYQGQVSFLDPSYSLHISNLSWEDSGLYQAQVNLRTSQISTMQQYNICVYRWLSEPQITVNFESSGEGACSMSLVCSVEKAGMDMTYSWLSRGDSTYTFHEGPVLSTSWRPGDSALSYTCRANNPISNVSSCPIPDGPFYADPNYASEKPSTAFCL

B1: ET200-108 (scFv)
scFv: QSVLTQPPSVSAPPGQKVTISCSGSSSNIGNNYVSWYQQFPGTAPKLLIYDNNKRPSGISDRFSGSKSGTSATLGIAGLQTGDEADYYCGTWDTSLSGFYVFGSGTKVTVLGSRGGGGSGGGGSGGGGSLEMAEVQLVQSGAEVKKPGASVKVSCKASGYTFTSYTISWVRQAPGQGLEWMGWISTYNGLTNYAQNLQGRVTMTTDTFTTTAYMELRSLRSDDTAVYYCVREGSPDYGDFASFDYWGQGTLVTVSSTSGQAGQHHHHHHGAYPYDVPDYAS
notes: screened as phage clone; entry is VL-linker-VH-His tag-HA tag
Q: Does B1 bind [1]?
A: Result: no binding

Q: Does B1 bind [2]?
A: Result: no binding

Q: Does B1 bind [3]?
A: Result: binds

Q: Does B1 bind [4]?
A: Result: no binding

Q: Does B1 bind [5]?
A: Result: no binding

B2: ET200-007 (scFv)
scFv: SYVLTQPLSVSVAPGKTARITCGGNNIGSKTVHWYQQKPGQAPVLVIYYDSDRPSGIPERFSGSNSGNTATLTISRVEAGDEADYYCQVWDSSSDHRVFGGGTKLTVLGSRGGGGSGGGGSGGGGSLEMAQVQLQESGPGLVKPSETLSLTCNVSGYSISSGYFWGWIRQPPGKGLEWIGSIYHSRSTYYNPSLKSRVTISVDTSKNQFSLKLNSVTAADTAVYYCARGYGYFDYWGQGTLVTVSSTSGQAGQHHHHHHGAYPYDVPDYAS
notes: as for B1
Q: Does B2 bind [1]?
A: Result: no binding

Q: Does B2 bind [2]?
A: Result: no binding

Q: Does B2 bind [3]?
A: Result: binds

Q: Does B2 bind [4]?
A: Result: no binding

Q: Does B2 bind [5]?
A: Result: no binding

B3: ET200-109 (scFv)
scFv: LPVLTQPPSASATPGQRVTISCSGTTSNIGSNTVHWYQQLPGTAPKLLIYNNNQRPSGVPDRFSGSKSGTSASLAISGLRSEDEATYSCATWDDSLSGVVFGGGTKLTVLGSRGGGGSGGGGSGGGGSLEMAEVQLVQSGAEVKKPGSSVKVSCKASGGTFSSYAISWVRQAPGQGLEWMGGIIPIFGTANYAQKFQGRVTITADESTSTAYMELSSLRSEDTAVYYCARDPAYGDYEYDAFDIWGQGTMVTVSSTSGQAGQHHHHHHGAYPYDVPDYAS
notes: as for B1
Q: Does B3 bind [1]?
A: Result: no binding

Q: Does B3 bind [2]?
A: Result: no binding

Q: Does B3 bind [3]?
A: Result: binds

Q: Does B3 bind [4]?
A: Result: no binding

Q: Does B3 bind [5]?
A: Result: no binding

B4: ET200-110 (scFv)
scFv: QSVLTQPPSASGTPGQRVTISCSGSSSNIGTNGVNWFQQFPGTAPKLLIYTNDQRPSGVPDRFSGSKSGTSASLAISGLQSADEADYYCAVWDHSLNGPVFGGGTKLTVLGSRGGGGSGGGGSGGGGSLEMAQVQLVQSGAEVKKPGSSVKVSCKASGGTFSSYAISWVRQAPGQGLEWMGGIIPIFGTANYAQKFQGRVTITADESTSTAYMELSSLRSEDTAVYYCARGAGFDAFDIWGQGTMVTVSSTSGQAGQHHHHHHGAYPYDVPDYAS
notes: as for B1
Q: Does B4 bind [1]?
A: Result: no binding

Q: Does B4 bind [2]?
A: Result: no binding

Q: Does B4 bind [3]?
A: Result: binds

Q: Does B4 bind [4]?
A: Result: no binding

Q: Does B4 bind [5]?
A: Result: no binding

B5: ET200-112 (scFv)
scFv: QAVLTQPPSASGTPGQRVTISCSGSSSNIGSNTVNWYQQLPGTAPKLLMYSNDQRPSGVPDRFSGSKSGTSASLAISGLQSEDEADYYCAAWDDSLNGYVFAAGTQLTVLSSRGGGGSGGGGSGGGGSLEMAQVQLQQWGAGLLKPSETLSLTCAVYGGSFSGYYWSWIRQPPGKGLEWIGEINHSGSTNYNPSLKSRVTISVDTSKNQFSLKLSSVTAADTAVYYCAREGLDAFDIWGQGTMVTVSSTSGQAGQHHHHHHGAYPYDVPDYAS
notes: as for B1
Q: Does B5 bind [1]?
A: Result: no binding

Q: Does B5 bind [2]?
A: Result: no binding

Q: Does B5 bind [3]?
A: Result: binds

Q: Does B5 bind [4]?
A: Result: no binding

Q: Does B5 bind [5]?
A: Result: no binding

B6: ET200-113 (scFv)
scFv: QSVVTQPPSVSAAPGQKVTISCSGSSSNIGNNYVSWYQQLPGTAPKLLIYDNNKRPSGIPDRFSGSKSGTSATLGITGLQTGDEADYYCGTWDSSLSAAYVFGTGTKVTVLGSRGGGGSGGGGSGGGGSLEMAQVQLVQSGAEVKKPGASVKVSCKASGYSFTSYTISWVRQAPGQGLEWMGWVSTYNGLRNYAQNLQGRVTMTTDTLTTTAYMELRSLRSDDTAVYYCVREGSPDYGDFAAFDYWGQGTLVTVSSTSGQAGQHHHHHHGAYPYDVPDYAS
notes: as for B1
Q: What does the source list for B6?
A: binding result [1]: no binding; binding result [2]: no binding; binding result [3]: binds; binding result [4]: no binding; binding result [5]: no binding

B7: ET200-115 (scFv)
scFv: QSVLTQPPSVSGAPGQRVTISCTGSSSNIGARYDVHWYQQLPGTAPRLLISANYDRPSGVPDRFSGSKSGTSASLAITGLQAEDEADYYCQSYDSSVSAWVFGGGTKVTVLGSRGGGGSGGGGSGGGGSLEMAEVQLVQSGAEVKEPGASVRISCQASGYNFISYYMHWVRQAPGQGLEWMGTINPGSGETDYSQKLQGRVTMTRDPSTGTFDMGLSSLTSGDTAVYYCATGLIRGASDAFNIWGRGTMVTVSSTSGQAGQHHHHHHGAYPYDVPDYAS
notes: as for B1
Q: Does B7 bind [1]?
A: Result: no binding

Q: Does B7 bind [2]?
A: Result: no binding

Q: Does B7 bind [3]?
A: Result: binds

Q: Does B7 bind [4]?
A: Result: no binding

Q: Does B7 bind [5]?
A: Result: no binding

B8: ET200-116 (scFv)
scFv: QPVLTQPPSVSVSPGQTAAIPCSGDKLGDKFASWYQQKPGQSPVLVIYQDTKRPSGIPERFSGSNSGNTATLTISGTQAMDEADYYCQTWASGIVVFGGGTKLTVLGSRGGGGSGGGGSGGGGSLEMAQVQLQQSGPGLVKPSQTLSLTCAISGDSVSSNSAAWNWIRQSPSRGLEWLGRTYYRSKWYNDYAVSVKSRITINPDTSKNQFSLQLNSVTPEDTAVYYCARERSGWKGFDYWGQGTLVTVSSTSGQAGQHHHHHHGAYPYDVPDYAS
notes: as for B1
Q: Does B8 bind [1]?
A: Result: no binding

Q: Does B8 bind [2]?
A: Result: no binding

Q: Does B8 bind [3]?
A: Result: binds

Q: Does B8 bind [4]?
A: Result: no binding

Q: Does B8 bind [5]?
A: Result: no binding

B9: ET200-118 (scFv)
scFv: QAVLTQPASVSGSPGQSITISCTGTSSDVGGYNYVSWYQQHPGKAPKLMIYEVSNRPSGVSNRFSGSKSGNTASLTISGLQAEDEADYYCSSYTSSSTPYVFGAGTKVTVLGSRGGGGSGGGGSGGGGSLEMAEVQLVESGGGLVQPGRSLRLSCAASGFTFDDYAMHWVRQAPGKGLEWVSGISWNSGSIGYADSVKGRFTISRDNAKNSLYLQMNSLRAEDTALYYCAKARWTAVASDHHFDYWGQGTLVTVSSTSGQAGQHHHHHHGAYPYDVPDYAS
notes: as for B1
Q: Does B9 bind [1]?
A: Result: no binding

Q: Does B9 bind [2]?
A: Result: no binding

Q: Does B9 bind [3]?
A: Result: binds

Q: Does B9 bind [4]?
A: Result: no binding

Q: Does B9 bind [5]?
A: Result: no binding
